Data reported in article PMC6020246, “Molecular characterization of a novel chitinase CmChi1 from Chitinolyticbacter meiyuanensis SYBC-H1 and its use in N-acetyl-D-glucosamine production” (Biotechnology for Biofuels, 2018).

System: T1, CC(=O)N[C@H]1[C@H](Oc2ccc([N+](=O)[O-])cc2)O[C@H](CO)[C@@H](O[C@@H]2O[C@H](CO)[C@@H](O)[C@H](O)[C@H]2NC(C)=O)[C@@H]1O
T1 construct: full length 658 residues with predicted signal peptide (residue 23) kept, C-terminal His6 (pET-28a(+)), E. coli BL21(DE3); peptides AATPTPVSAT, EDYKVLKNA, LTFINYAFGNVYQK
Experiment: p-nitrophenol release, Lineweaver-Burk plot
Format: biochemical, Chitinolyticbacter meiyuanensis
Settings: 50 mM sodium citrate pH 5.2, 50 °C, 5 min, apparent, text b64 prints the same number as mg/mL, table unit agrees with printed kcat/Km 73.5 mL/s/μmol
Source text: p-nitrophenol release, Lineweaver-Burk plot on CmChi1

Chain of CmChi1 (Chitinolyticbacter meiyuanensis) (chain, as listed by the source): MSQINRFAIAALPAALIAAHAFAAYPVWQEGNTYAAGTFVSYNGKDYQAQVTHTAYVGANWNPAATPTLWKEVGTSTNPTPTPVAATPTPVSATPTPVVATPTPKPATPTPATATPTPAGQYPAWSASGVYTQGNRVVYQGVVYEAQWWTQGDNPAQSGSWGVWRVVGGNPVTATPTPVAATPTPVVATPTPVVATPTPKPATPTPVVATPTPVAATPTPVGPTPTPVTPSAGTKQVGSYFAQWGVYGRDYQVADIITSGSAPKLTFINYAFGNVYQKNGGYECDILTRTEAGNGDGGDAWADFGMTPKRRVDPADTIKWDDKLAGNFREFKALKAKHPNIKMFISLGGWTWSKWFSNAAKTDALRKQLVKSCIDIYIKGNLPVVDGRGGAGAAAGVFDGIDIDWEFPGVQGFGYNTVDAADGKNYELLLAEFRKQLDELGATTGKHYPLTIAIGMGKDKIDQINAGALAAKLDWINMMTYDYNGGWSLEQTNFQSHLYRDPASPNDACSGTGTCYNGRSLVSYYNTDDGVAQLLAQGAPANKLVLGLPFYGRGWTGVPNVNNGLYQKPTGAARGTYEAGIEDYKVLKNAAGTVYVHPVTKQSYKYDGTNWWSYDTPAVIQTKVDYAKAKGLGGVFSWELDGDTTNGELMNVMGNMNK

Question: For “CmChi1 (Chitinolyticbacter meiyuanensis)”, which Km is on record?
Answer: The Km was 580 ± 40 µM.

Question: And the Vmax?
Answer: The Vmax was 108.6 ± 3.3 (μmol/min/L).

Question: And the kcat?
Answer: Its kcat is 42.5 ± 1.4 s⁻¹.

Question: What about the kcat/Km of the same substance?
Answer: Its kcat/Km is 73.5 ± 2.6 (mL/s/μmol).
